According to the RNAGym collection of RNA variant scans (doi:10.1073/pnas.2313332121):
Fewer inactive variants are shown than the library holds.

B1: TPR 5TU (parent)
chain: GGAUCUUCUCGAUCUAACAAAAAAGACAAAUCUGCCACAAAGCUUGAGAGCAUCUUCGGAUGCAGAGGCGGCAGCCUUCGGUGGCGCGAUAGCGCCAACGUUCUCAACUAUGACACGCAAAACGCGUGCUCCGUUGAAUGGAGUUUAUCAUG

Variants of: B1
Test: polymerase ribozyme fitness, log enrichment relative to wild type (log ratio); higher = more active; in vitro selection for triplet polymerase activity
How it was run: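 Each subunit of a heterodimeric triplet polymerase ribozyme was represented by a PCR-built, transcribed mutant library that underwent triplicate single-round in vitro selection with frozen incubation at −7 °C. Extended constructs were recovered by gel excision, streptavidin-bead capture and RT-PCR, and Illumina sequencing of input and output libraries kept genotypes with ≥10 input reads and ≥1 read per output. Fitness is the logarithm of genotype enrichment relative to wild-type enrichment, from inverse-variance-weighted replicate averages, with a logarithm base of 2.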

Row | Variant | polymerase ribozyme fitness (log ratio)
1 | GGAUCUUCUCGACCUAACAAAAAAGACAAAUCUGCCACAAAGCUGGAGAGCAUCUUCGGAUGCAGAGGCGGCAGCCUUCGAUGGUGCGAUAGCGCCAACGUUCUCAACUAUGACACGUAAAACGCAUGCUCCGUUGAAUGGAGUUUAUCAUG | ≤ -4.2
2 | GGAUCUUCUCGACCUAACAAAAAAGACAAAUCUGCCACAAAGCUUGAGAGCAUCUUCGGAGGCAGAGGCGGCAGCCUUCGGUGACGCGAUGGCGCCAACGUUCUCAACUAUGACACGCAAAACGCGUGCUCCGUUGAAUGGAGUUUAUCAUG | -3.86
3 | GGAUCUUCUCGAGCUAGCAAAAAAGACAAAUCUGCCACAAAGCUUGAGAGCAUCUUCGGAUGCAGAGGCGGCAGCCUUCGGUGGCGCGAUAGCGCAAACGUUCUCAACUAUGACACGCAAAACGCGUGCUCCGUUGAAUGGACUUUAUCAUG | -4.19
4 | GGAUCUUCUCGAGCUAACACAAAAGACAAAUCUGCCACAAAGCUUGAGAGCAUCGUCGGAUGCAGAGGCGGCAGCCUUCGGUGGCGCGAGAGCGGCAACGUUCUAAACUAUGACAGGCAAAACACGUGCUCCGUUGAAUGGAGUUUAUCAUG | ≤ -4.2
5 | GGAUCUUCUCGACCUAACAAAAAAGACAAAUCUGCCACAAAGCUUGAGAGCAUCUUCGGAUGCAGAGGCGGCAGCCUUCGGUGGCGCGAGAGCGCCAACGUUCUCAACUAUGACAAGCAAAACGCGUGCUCCGUUGAAUGGAGUUUAUCAUG | -4.13
6 | GGAUCUUCUCGACCUAACAAAAAAGACAAAUCUGCCACAAAGCUUGAGAGCAACUUCGGAUGCAGAGGCGGCAGCCUUCGGUGGCGCGAUUGCGCCAACGUUCUCAUCUAUGACACGCAAAACGCGUGCUCCGUUGAAUGGAGUUUAUCAUG | ≤ -4.2
7 | GGAUCUUCUCGACCUAACAAAAAAGACAAAUCAGCCACAAAGCUUGAGAGCAUAUUCGGAUGCAGAGGCGGCAGCCUUCGGUGGCGCGAUAGCGGCACAGUUCUCAACUAUGACACGCAAAACGCGUGCUCCGUUGAAUGGAGUUUAUCGUG | ≤ -4.2
8 | GGAUCUUCUCGACCUAACAAAAAAGACAAAUCUGCCACAAAGCUUGAGAGCAUCUGCGGAUGCAGAGGCGGCAGCCUUCGGUGGCGCGAUAGCGCCAACGUUCUCAACUAUGACGCGCAAAACGCGUGCUCCGUUGAAUGGAGUUUAUCAUG | -2.32
9 | GGAUCUUCUCGACCUAACAAAAAAGACAAAUCUGCCACAAAGCUUGAGAGCAGCUUCGGAUGCAGAGGCGGCAGCCUUCGGUGGCGAGAUAGCGCCAACGUUCUCAACUAUGACACGCAUAACGCGUGCUCCGUUGAAUGGUGUUAAUCAUG | ≤ -4.2
10 | GGAUCUUCUCGACCUAACAAAAAAGACAAAUCUGCCACAAAGCUUGAGAGCAUCUUCGGAUGCAGAGGCGGCAGCCUUCGGUGGCGCGAUAGCCCCAACGUUCUCAACUAUGACACGCAAAACGCGUGCUCCGUUGAAUGGAGUUUAUCAUG | -0.0586
11 | GGAUCUUCUCGAGCUAACUAAAAAGACAAAUCUGCCACAAAGCUUGAGUGCAUGUUCGGAUGCAGAGGCGGCAGCCUUCGGUGGCGCGGUAGUGCCAACGUUCUCAACUAUGACACGCAAAACGCGCGCUCCGUUGAAUGGAGUUUAUCAUG | ≤ -4.2
12 | GGAUCUUCUCGACCUAACAAAAAAGACAAAUCUGCCACAAAGCUUGAGAGCAUCUUCGGAUGCAGAGGCGGCAGCCUGCGGUGGAGCGAUAGCGCCAACGUUCUCAACUAUGACAUGCAAAACGCGUGCUCCGUUGAAUGGAGUUUAUCAUG | ≤ -4.2
13 | GGAUCUUCUCGACCUAACAAAAAAGACAAAUCUGCCACAAAGCAUGAGAGCAUCUACGGAUGCAGAGGCGGCAGCCUUUGGUGGCGCGAUAGGGUCAACGUUCUCAACUAUGACCCGCAAAACGCGUGCUCCGUUGAAUGUAGUUUAUCAUG | ≤ -4.2
14 | GGAUCUUCUCGACCUAACAAAAAAGACAAAUCUGCCACAAAGCUUGAGAGCAUCUUCGGAUGCAGAGGCGGCAGCCUUCGGUGGCGCGAUAGCACCAACGUUCUCAACUAUGACACGCAAAACGCGUGCUCCGUUGAAUGUAGUUUAUCAUG | 0.369
15 | GGAUCUUCUCGACCUAACAAAAAAGACAAAUCUGCCACAAAGCAUGAGAGCAUCAUCGUAUGCAGAGGCGGCAGCCUUCGGUGACGCGAUAGCGCCAACGUUCUCAACUAUGACACGCAAAACGCGUGCUCCGUUGAAUGGAGUUUAUCCUG | ≤ -4.2
16 | GGAUCUUCUCGAGCUAUCAAGGAAGACAAAUCUGCCACAAAGCUUGAGACCAUCUUCGAAUGCAGAGGCCGUAGCCUUCGGUGGCGCGAUAGCGCCAACGUUCUCAACUAUGACACGCAAAACGGGUGCUCCGUUGAAUGGAGUUUAUCAUG | ≤ -4.2
17 | GGAUCUUCUCGAGCUAACGAAAAACACAAAUCUGCCACAAAGCUUGAGAGCAUCUUCGGAUGCAGAGGCGGCAGCCUUAGGUGGCGCGAUAGCGCCAACGUUCUCAACUAUGACACGCAAAACGCGUGCUGCGUUGAAUGGAGUGUAUCAUG | ≤ -4.2
18 | GGAUCUUCUCGAGCUUACAAAAAAGACAAAUCUGCCACAAAGCUUGAGAGCAUCUUCGGAUGCAGAGGCGGCAGCCUUCGGUGGUGCGAUAGCGCCAACGUUCUCAACUAUGACACGCAAAACGCGUGCUCCGUUGAAUGGAGUGUAUCAUG | -3.16
19 | GGAUCUUCUCGACCUAACAAAAAAGACAAAUCUGCCACAAAGCUUGAGAGCAUCUUCGGAUGCAGAGGCGGCAGCCUUCGGUGGCGCGAUAGCGCCAACGUUCGCAACUAUGACACGCAAAACGCGUGCUCCGUUGAAUGGAGUUUAUCAUG | -1.57
